The labels stand for the following.
B1: GpH7-A5/GpH7-B3 variant P271_12R/GpL16-k0 (He Ab) (antibody, human IgG1, kappa)
heavy 1: not shown
heavy 2: not shown
light: DIVMTQSPLSLPVTPGEPASISCQASESLVHSNRNTYLHWYLQKPGQSPQLLIYKVSNRFSGVPDRFSGSGSGTDFTLKISRVEAEDVGVYYCSQNTHVPPTFGQGTKVEIERTVAAPSVFIFPPSDEQLKSGTASVVCLLNNFYPREAKVQWKVDNALQSGNSQESVTEQDSKDSTYSLSSTLTLSKADYEKHKVYACEVTHQGLSSPVTKSFNRGEC
notes: He Ab: mutation in one H chain only
B2: GpH7-A5/GpH7-B3 variant P271_14T/GpL16-k0 (He Ab) (antibody, human IgG1, kappa)
heavy 1: not shown
heavy 2: not shown
light: B1 light
notes: as for B1
B3: GpH7-A5/GpH7-B3 variant S239_14T/GpL16-k0 (He Ab) (antibody, human IgG1, kappa)
heavy 1: not shown
heavy 2: not shown
light: B1 light
notes: as for B1
B4: GpH7-A5/GpH7-B3 variant Q295_07I/GpL16-k0 (He Ab) (antibody, human IgG1, kappa)
heavy 1: not shown
heavy 2: not shown
light: B1 light
notes: as for B1
B5: GpH7-A5/GpH7-B3 variant P271_16H/GpL16-k0 (He Ab) (antibody, human IgG1, kappa)
heavy 1: not shown
heavy 2: not shown
light: B1 light
notes: as for B1
B6: GpH7-A5/GpH7-B3 variant Q295_06M/GpL16-k0 (He Ab) (antibody, human IgG1, kappa)
heavy 1: not shown
heavy 2: not shown
light: B1 light
notes: as for B1
B7: GpH7-A5/GpH7-B3 variant S267_16H/GpL16-k0 (He Ab) (antibody, human IgG1, kappa)
heavy 1: not shown
heavy 2: not shown
light: B1 light
notes: as for B1
B8: GpH7-A5/GpH7-B3 variant S267_18N/GpL16-k0 (He Ab) (antibody, human IgG1, kappa)
heavy 1: not shown
heavy 2: not shown
light: B1 light
notes: as for B1
B9: GpH7-A5/GpH7-B3 variant P271_13S/GpL16-k0 (He Ab) (antibody, human IgG1, kappa)
heavy 1: not shown
heavy 2: not shown
light: B1 light
notes: as for B1
B10: GpH7-A5/GpH7-B3 variant S239_19Q/GpL16-k0 (He Ab) (antibody, human IgG1, kappa)
heavy 1: not shown
heavy 2: not shown
light: B1 light
notes: as for B1
B11: GpH7-A5/GpH7-B3 variant Q295_05P/GpL16-k0 (He Ab) (antibody, human IgG1, kappa)
heavy 1: not shown
heavy 2: not shown
light: B1 light
notes: as for B1
B12: GpH7-A5/GpH7-B3 variant P271_19Q/GpL16-k0 (He Ab) (antibody, human IgG1, kappa)
heavy 1: not shown
heavy 2: not shown
light: B1 light
notes: as for B1
B13: GpH7-A5/GpH7-B3 variant Q295_03V/GpL16-k0 (He Ab) (antibody, human IgG1, kappa)
heavy 1: not shown
heavy 2: not shown
light: B1 light
notes: as for B1
B14: GpH7-A5/GpH7-B3 variant Q295_04F/GpL16-k0 (He Ab) (antibody, human IgG1, kappa)
heavy 1: not shown
heavy 2: not shown
light: B1 light
notes: as for B1
B15: GpH7-A5/GpH7-B3 variant P271_18N/GpL16-k0 (He Ab) (antibody, human IgG1, kappa)
heavy 1: not shown
heavy 2: not shown
light: B1 light
notes: as for B1
B16: GpH7-A5/GpH7-B3 variant P271_20W/GpL16-k0 (He Ab) (antibody, human IgG1, kappa)
heavy 1: not shown
heavy 2: not shown
light: B1 light
notes: as for B1
B17: GpH7-A5/GpH7-B3 variant P271_15Y/GpL16-k0 (He Ab) (antibody, human IgG1, kappa)
heavy 1: not shown
heavy 2: not shown
light: B1 light
notes: as for B1
B18: GpH7-A5/GpH7-B3 variant V266_19Q/GpL16-k0 (He Ab) (antibody, human IgG1, kappa)
heavy 1: not shown
heavy 2: not shown
light: B1 light
notes: as for B1

T2 sequence (P12314 16-292): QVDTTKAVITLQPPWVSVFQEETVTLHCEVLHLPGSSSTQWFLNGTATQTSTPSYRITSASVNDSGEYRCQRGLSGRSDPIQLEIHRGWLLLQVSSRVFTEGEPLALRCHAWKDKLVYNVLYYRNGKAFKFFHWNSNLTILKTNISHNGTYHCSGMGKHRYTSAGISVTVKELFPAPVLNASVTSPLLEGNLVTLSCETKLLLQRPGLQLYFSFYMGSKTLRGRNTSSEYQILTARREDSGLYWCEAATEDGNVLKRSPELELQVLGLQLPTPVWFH

For one experiment, the target named is T1, FcγRIIb extracellular domain with C-terminal His tag (human, UniProt P31994 43-217).
T1 construct: extracellular domain; Expressed in FreeStyle293 cells; analyte in the SPR assay; also called FcgRIIb; 2b
T1 sequence (looked up): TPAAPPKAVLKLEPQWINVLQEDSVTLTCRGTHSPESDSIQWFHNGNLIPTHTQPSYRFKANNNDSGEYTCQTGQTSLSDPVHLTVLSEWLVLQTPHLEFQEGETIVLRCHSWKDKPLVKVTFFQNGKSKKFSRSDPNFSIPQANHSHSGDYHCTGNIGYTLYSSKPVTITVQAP
The experiment is described as follows: SPR (Biacore), relative binding, HeCon Ab = 100. (Surface plasmon resonance follows binding to a sensor surface in real time, without labels.)
For B1, the He/Con_2b was 86.5 % of HeCon Ab (=100).
On the same count and under the same terms, as for B2, the figure is 95.4 % of HeCon Ab (=100).
On the same count and under the same terms, the result for B3 reads 97.3 % of HeCon Ab (=100); that for B4, 84.3 % of HeCon Ab (=100).
Consider B5, for which the He/Con_2b was 67.9 % of HeCon Ab (=100).
Regarding B6, the He/Con_2b was 90.4 % of HeCon Ab (=100).
In the case of B7, the He/Con_2b is 65.9 % of HeCon Ab (=100).
The same measure, in the same setting: the result for B8 reads 47.7 % of HeCon Ab (=100).
The same measure, in the same setting: as for B9, the figure is 87.6 % of HeCon Ab (=100).
On the same count and under the same terms, the result for B10 reads 86.1 % of HeCon Ab (=100); that for B11, 67.5 % of HeCon Ab (=100).
Regarding B12, the He/Con_2b is 88.6 % of HeCon Ab (=100).
Same read-out and setting: as for B13, the figure is 75.7 % of HeCon Ab (=100); as for B14, 64.7 % of HeCon Ab (=100); as for B15, 93.3 % of HeCon Ab (=100).
The same measure, in the same setting: as for B16, the figure is 58.1 % of HeCon Ab (=100); as for B17, 52.3 % of HeCon Ab (=100).
Regarding B18, the He/Con_2b is 89.2 % of HeCon Ab (=100).

A further experiment addresses T2, FcγRIa extracellular domain with C-terminal His tag (human, UniProt P12314 16-292).
T2 construct: extracellular domain; Expressed in FreeStyle293 cells; analyte in the SPR assay; also called FcgRI; 1a
In words: SPR (Biacore), relative binding, HeCon Ab = 100.
B1: the He/Con_1a is 102 % of HeCon Ab (=100).
On the same count and under the same terms, the result for B2 reads 102 % of HeCon Ab (=100).
The same measure, in the same setting: the result for B3 reads 101 % of HeCon Ab (=100); that for B4, 103 % of HeCon Ab (=100); that for B5, 102 % of HeCon Ab (=100).
Turning to B6, the He/Con_1a is 104 % of HeCon Ab (=100).
Same read-out and setting: as for B7, the figure is 100 % of HeCon Ab (=100); as for B8, 102 % of HeCon Ab (=100); as for B9, 102 % of HeCon Ab (=100).
Still for that read-out and setting: as for B10, the figure is 101 % of HeCon Ab (=100).
On the same count and under the same terms, as for B11, the figure is 103 % of HeCon Ab (=100); as for B12, 103 % of HeCon Ab (=100); as for B13, 104 % of HeCon Ab (=100).
In the case of B14, the He/Con_1a is 102 % of HeCon Ab (=100).
As to B15, the He/Con_1a is 103 % of HeCon Ab (=100).
On the same count and under the same terms, as for B16, the figure is 103 % of HeCon Ab (=100).
On the same count and under the same terms, the result for B17 reads 103 % of HeCon Ab (=100); that for B18, 100 % of HeCon Ab (=100).

The values are drawn from patent publication US20150344570A1 (published 2015).
